Experimental findings from publication PMC7948471, “RSU-1 interaction with prohibitin-2 links cell–extracellular matrix detachment to downregulation of ERK signaling” (The Journal of Biological Chemistry, 2020) are described below.

For the experiment, the target named is T1, GST-tagged RSU1 (full length) (human, UniProt Q15404 1-277).
T1 construct: Ras suppressor 1 (RSU1), human; the ORF inserted into pGEX-5x-1; In solution in the MBP-PHB2 pull-down; as bait in the pull-down of venus-PHB2; also called GST-RSU1; source: E. coli, purified (glutathione-Sepharose 4B)
T1 sequence (looked up): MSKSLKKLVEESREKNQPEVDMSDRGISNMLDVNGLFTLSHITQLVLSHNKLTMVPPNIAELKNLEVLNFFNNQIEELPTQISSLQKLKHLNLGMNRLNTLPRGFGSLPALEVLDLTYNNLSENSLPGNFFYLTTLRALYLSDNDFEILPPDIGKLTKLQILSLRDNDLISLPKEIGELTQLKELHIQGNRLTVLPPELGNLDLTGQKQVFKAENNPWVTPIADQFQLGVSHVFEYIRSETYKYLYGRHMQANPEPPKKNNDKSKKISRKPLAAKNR
Kind of experiment: pull-down; GST-RSU1 (10 μg/ml) with amylose beads holding MBP-tagged full-length or deletion forms of PHB2 or MBP; 1% Triton X-100, 10 mM Tris, 100 mM NaH2PO4, pH 8.0; 4 °C, 3 h; Western blot with anti-RSU1. The conditions noted are these: both partners purified. Background: Immunoblotting shows a protein as a band on a membrane.

B1: MBP-tagged PHB2 mutant in which amino acids 150 to 206 are deleted (Δ150–206) (natural protein, human, UniProt Q99623 1-299, looked up)
chain: MAQNLKDLAGRLPAGPRGMGTALKLLLGAGAVAYGVRESVFTVEGGHRAIFFNRIGGVQQDTILAEGLHFRIPWFQYPIIYDIRARPRKISSPTGSKDLQMVNISLRVLSRPNAQELPSMYQRLGLDYEERVLPSIVNEVLKSVVAKFNAQRAQFLVEKAKQEQRQKIVQAEGEAEAAKMLGEALSKNPGYIKLRKIRAAQNISKTIATSQNRIYLTADNLVLNLQDESFTRGSDSLIKGKK
notes: source: E. coli, purified (amylose-agarose beads)
Turning to B1, the binding result is “binds”.

B2: MBP-tagged PHB2 middle region (amino acids 150–206) (domain or fragment, human, UniProt Q99623 150-206, looked up)
chain: ASQLITQRAQVSLLIRRELTERAKDFSLILDDVAITELSFSREYTAAVEAKQVAQQE
notes: as for B1
Regarding B2, the binding result is on record as “binds”.
